We go through 5 substances from patent US20250136650A1, “COMPOSITIONS AND METHODS FOR DNA BINDING AND TRANSCRIPTIONAL REGULATION” (THE UNIVERSITY OF CHICAGO, priority 2021, published 2025).

Series [1] has as its system FJSTR72 (Fos/Jun-derived stapled bZIP dimer) (synthetic (human c-Fos/c-Jun)). Briefly: EMSA. Background: Mobility shift assays separate free from complexed probe on a gel.
Series [2] deals with T1, STR4 (XBP1-derived unstapled bZIP dimer, Met-to-Leu) (synthetic (human XBP1)) (UniProt P17861+P17861).
T1 sequence 1: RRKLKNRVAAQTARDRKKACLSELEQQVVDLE
T1 sequence 2: T1 sequence 1 with C20R, E25X
Briefly: EMSA. The following applies: 20 mM HEPES pH 8.0, 150 mM NaCl, 2 mM MgCl2, RT 1 h.

Series [3] has as its system T2, STR22 (XBP1-derived stapled bZIP dimer) (synthetic (human XBP1)).
T2 sequence 1: T1 sequence 1 with L4X, V8X
T2 sequence 2: T1 sequence 1 with L4X, V8X, C20R, E25X
Briefly: EMSA. The conditions noted are these: 20 mM HEPES pH 8.0, 150 mM NaCl, 2 mM MgCl2, RT 1 h; 14.17 nM reported in Example 4 (FIG. 2).

Series [4] shares this test system. Briefly: competition. The conditions noted are these: EMSA competition with unlabeled UPRE against 5 nM labeled UPRE.
Series [5] has the same test system. Briefly: cell_activity. The conditions noted are these: +/-3.5; inhibition of XBP1s-induced luciferase in HeLa, 24 h.
For another series, the system named is Ebox site. Nature of the series: EMSA, binding to Ebox site. The text has this:
(§1) bZIP transcriptional repressors FJSTR7 (shown in FIGS. 42 and 45), FJSTR71 (shown in FIGS. 52 and 53), and FJSTR72 (shown in FIGS. 52 and 54), were generated and tested.

The subject of another series is MC38 tumors. Briefly: Subcutaneous MC38 tumor model. Type of series: in vivo. The conditions noted are these: MC38-bearing mouse, intratumoral.
A further series concerns the target AP-1 site. Briefly: EMSA, direct binding to AP-1 DNA probe.
From the text: The DNA binding dimer STR22 (shown in FIG. 21 and FIG. 27) was synthesized. STR22 was subjected to EMSA to measure binding to either the UPR element (UPRE) or AP-1 binding site (AP-1).
as §1
Electrophoretic Mobility Shift Assays (EMSAs): For direct DNA binding experiments, STRs were serially diluted at 10× concentration in water and then 1 μL of STR solution was added to 9 μL of 5 nM IRD700-labeled DNA probe bearing either a UPRE or AP-1 motif in a final 1×binding buffer (20 mM HEPES pH 8.0, 150 mM NaCl, 5% glycerol, 1 mM EDTA, 2 mM MgCl2, 0.5 mg/mL BSA, 1 mM DTT, 0.05% NP-40). Samples were incubated for 1 hr at RT. 5 μL of each reaction was loaded on an 8% acrylamide, 0.5×TBE gel equilibrated to 4° C. Samples were resolved for 60 min at 110 V and 4° C. with 0.5×TBE+1 mM MgCl2 running buffer. Gels were pre-run at 110 V for 15 min prior to sample loading. For competition experiments, 30 or 60 nM STRs and 5 nM labeled UPRE probe were incubated with 0, 7.8, 13, 21.6, 36, 60 or 100 nM unlabeled competitor oligo for 1 hr at RT. […] ImageJ was used to quantify band intensity and the fraction of bound DNA was calculated by dividing the band intensity of bound DNA by the band intensity of free DNA from the vehicle treated lane. […]

In another series the test system is cells. Nature of the series: Fluorescent microscopy of cell penetration by FJSTRs. Type of series: cell-based. The following applies: FJSTR7 and FJSTR72 at 5 μM, FJSTR71 at 2 μM.
From the text: as §1

Residue numbers refer to the chain shown, from its start. Entries after “also recorded” stand apart in the source; their conditions may differ. *1 amine or outer side, *2 acyl side, *3 side chain or, on linkers, in order; H or OH if unused. Bridges are numbered along the chain shown (N, C = ends). Roman numbers before positions name the chains, in order. [ ]: non-standard residue; d: D form. X1 = O=C1CC([*:1])C(=O)N1CC(=O)[*:2]; S5 = C=CCCC[C@](C)(N)C(=O)O

The substance AP-1 site probe (FJSTR) showed a Kd in series [1] of 12 nM.
Regarding “TGACGTGG (double strand) [UPRE consensus probe]”, the Kd in series [2] is 49 nM; in series [3], 11 nM.
For “TGACGTGG (double strand) [UPRE consensus competitor (unlabeled)]”, the Ki in series [4] was determined as 28.6 nM.
For 3xUPRE luciferase reporter, the IC50 in series [5] came out at 7400 nM.
For the substance “I: Ac-IRRERNKMAAAKSRNRRRECI[S5]ELQ[S5]EIEQLE-NH2 / II: Ac-RKRMRNRIAASKSRKRKLERI[S5]RLK[S5]KIKTLK-NH2 (linker I:20-II:25 via X1; staple (Z) I:22-I:26, II:22-II:26) [FJSTR72]”, in the series with Ebox site, the “binding to Ebox site” value was “does not bind to the Ebox site”. Further, the tumor growth result in the series with MC38 tumors is “reduces tumor growth”. Besides, the affinity at AP-1 site, expressed as Kd, was 12 nM. Moreover, the penetration of cells result with cells is given as “penetration; also recorded: capable of entering cells”.

For orientation: Kd means the free concentration of one partner at which half of the binding sites on the other are occupied at equilibrium, for simple one-to-one binding. As usually defined, the Ki is the dissociation constant of the complex between target and ligand, obtained from inhibition or displacement. A lower Ki goes with a stronger hold on the target. By IC50 is commonly meant the concentration that gives 50% inhibition. A higher IC50 goes with weaker potency in that assay.
